What was measured:
[1] = target: AjNLRC4 (native, on coelomocytes) (Apostichopus japonicus (endogenous in coelomocytes)); assay: cross-linking; sea cucumbers injected with V. splendidus for 30 min; coelomocytes treated with BS3 (5 mM, 4°C, 1 h); SDS-PAGE and western blotting with anti-AjNLRC4 antibodies
[2] = target: GST-tagged AjNLRC4-IN (intracellular fragment of AjNLRC4 with the NACHT domain) (Apostichopus japonicus); assay: MST; Monolith NT; labeled GST-AjNLRC4-IN (10 μM) constant, a range of concentrations of His-β-Actin; 50 mM Tris-HCl pH 7.8, 150 mM NaCl, 10 mM MgCl2, 0.05% Tween-20; 10 min incubation; 20% LED power, 80% MST power

oligomeric state (subunits per complex) [1]	Kd [2] [µM]	Substance
2	–	AjNLRC4 (native, on coelomocytes) (receptor)
–	5.87	His-tagged Ajβ-actin (natural protein)
